According to patent US11708423B2, “Chimeric engulfment receptor molecules and methods of use” (CERO THERAPEUTICS, INC., priority 2017, dated 2023):

Experiments:
[1] = tested on: H1703 non-small cell lung cancer cells; assay: Killing of paclitaxel treated H1703 cells by CER21+ human primary B cells; type: cell-based; details: Paclitaxel 30 μM, target:effector 5:1, 3 hours, vs EGFRt B cells
Experimental: Human primary B cells were transduced with pLenti Tim4-TLR8 (CER21) lentivirus expressing truncated EGFR as a transduction marker and stained with CELLTRACE Violet as described in Example 1. One day prior to setting up a co-culture assay, H1703 non-small cell lung cancer cells were incubated with phosphatidylserine inducing chemotherapy Paclitaxel (30 μM) in serum-free media for 24 hours. Floating and adherent H1703 cells were collected, centrifuged, incubated with pHrodo red (1 ng/μL) for 15 minutes at room temperature in PBS, washed, and then plated in a non-adherent 96 well plate. Human CER21+ B cells and H1703 cells were co-cultured at a target cell to effector cell ratio of 5:1 at 37° C. for 3 hours. B cells transduced with truncated EGFR were used as control. The plate was then imaged using a 20X objective, Keyence BZ-X710 microscope (FIG. 21). Cells undergoing apoptosis show increasing Red fluorescence as the intracellular pH drops in the earliest stages of apoptosis (FIG. 21, top row). Adjacent cells not induced by Paclitaxel treatment remain only dimly fluorescent. Apoptotic measurements in the presence of CER21+ B cells were quantified as the Area under the Curve of red fluorescent objects and outlined in blue using automated software (FIG. 21, bottom row; FIG. 22), for each high powered field. White arrows show apoptosis events.

[2] = tested on: dexamethasone pre-treated thymocytes; assay: Phagocytosis of thymocytes by CER Ba/F3 cells in presence or absence of Racl inhibitor; type: cell-based; details: Ba/F3 cells, 6 hour co-culture

B1: CER21: Tim4 binding and transmembrane domains, TLR8 signaling domain; SEQ ID NO:88 (protein)
chain: MSKGLLLLWLVTELWWLYLTPAASEDTIIGFLGQPVTLPCHYLSWSQSRNSMCWGKGSCPNSKCNAELLRTDGTRIISRKSTKYTLLGKVQFGEVSLTISNTNRGDSGVYCCRIEVPGWFNDVKKNVRLELRRATTTKKPTTTTRPTTTPYVTTTTPELLPTTVMTTSVLPTTTPPQTLATTAFSTAVTTCPSTTPGSFSQETTKGSAFTTESETLPASNHSQRSMMTISTDIAVLRPTGSNPGILPSTSQLTTQKTTLTTSESLQKTTKSHQINSRQTILIIACCVGFVLMVLLFLAFLHHLFYWDVWFIYNVCLAKVKGYRSLSTSQTFYDAYISYDTKDASVTDWVINELRYHLEESRDKNVLLCLEERDWDPGLAIIDNLMQSINQSKKTVFVLTKKYAKSWNFKTAFYLALQRLMDENMDVIIFILLEPVLQHSQYLRLRQRICKSSILQWPDNPKAEGLFWQTLRNVVLTENDSRYNNMYVDSIKQY
modifications: CER21 chimeric engulfment receptor
[1]
  killing of paclitaxel treated H1703 cells (apoptotic object area): enhance killing of target cells at sub-therapeutic dose of chemotherapy
[2]
  pHrodo+ signal (phagocytosis of thymocytes), FACS: considerable pHrodo+ signal indicating phagocytosis of target thymocytes
